The text below walks through data of patent publication US20220380475A1 (SORRISO PHARMACEUTICALS, published 2022).

Positions count from the first letter of the chain named. Names may count otherwise. Where two headings read alike, the source gives them in different places.

In test [1] the target is T1, membrane-bound human IL-6R on TF-1 cells (human, UniProt P08887 20-468).
T1 sequence: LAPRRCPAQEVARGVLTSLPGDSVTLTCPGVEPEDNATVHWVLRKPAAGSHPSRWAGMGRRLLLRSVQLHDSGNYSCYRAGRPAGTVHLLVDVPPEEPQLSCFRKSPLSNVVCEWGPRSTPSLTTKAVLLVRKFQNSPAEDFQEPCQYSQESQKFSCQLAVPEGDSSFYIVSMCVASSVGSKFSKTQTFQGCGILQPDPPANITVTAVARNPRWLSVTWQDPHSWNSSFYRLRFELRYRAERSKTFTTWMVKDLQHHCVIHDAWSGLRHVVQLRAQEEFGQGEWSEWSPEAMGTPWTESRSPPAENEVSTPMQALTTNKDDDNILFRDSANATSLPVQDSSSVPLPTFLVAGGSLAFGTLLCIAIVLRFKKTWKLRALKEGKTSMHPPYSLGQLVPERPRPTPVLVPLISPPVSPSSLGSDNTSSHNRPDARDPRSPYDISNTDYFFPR
The experiment in a line: cell-based or functional assay.

Test [2] addresses cynomolgus monkey soluble IL-6R (from cynomolgus monkey serum) (cynomolgus monkey). The experiment in a line: ratio of gp130 ELISA IC50s on human and cynomolgus sIL-6R.
In test [3] the target is T2, recombinant soluble human IL-6R (human, UniProt P08887 20-365).
T2 sequence: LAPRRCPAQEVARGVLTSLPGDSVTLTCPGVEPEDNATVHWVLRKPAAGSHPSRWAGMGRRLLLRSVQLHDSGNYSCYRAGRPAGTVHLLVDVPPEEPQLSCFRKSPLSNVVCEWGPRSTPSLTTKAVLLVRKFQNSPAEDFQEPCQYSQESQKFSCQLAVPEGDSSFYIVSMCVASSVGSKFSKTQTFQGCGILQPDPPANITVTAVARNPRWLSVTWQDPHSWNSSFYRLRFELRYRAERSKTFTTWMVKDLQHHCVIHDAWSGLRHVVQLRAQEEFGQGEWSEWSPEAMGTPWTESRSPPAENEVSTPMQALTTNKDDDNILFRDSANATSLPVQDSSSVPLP
The experiment in a line: gp130 ELISA (competition), parallel human arm: 10 ng/mL human IL-6R, 50 ng/mL human IL-6. As to the method: (§1) The standard anti-cynomolgus monkey IL-6R gp130 ELISA assay detailed under ‘Potency, neutralisation and inhibition’ above was performed to assay the ICVDs in parallel for their ability to neutralise sIL6R in cynomolgous monkey serum and recombinant purified human sIL6R. Briefly, Maxisorp 96-well plates were coated overnight with 50 μl/well 1 μg/ml gp130 then blocked. ICVDs were serially diluted and mixed 1:1 with 200 ng/ml recombinant human IL-6, then 1:1 with either 20 ng/ml recombinant human sIL-6R or a 5-fold dilution of cynomolgus monkey serum and incubated for 1 hour to allow binding before adding to the gp130-coated plates. Bound cynomolgus monkey IL-6R was detected with 50 μl/well either 0.25 μg/ml (for human IL-6R) or 0.5 μg/ml (for monkey serum) BAF227 and then 50 μl/well 1/1000 Extravidin-HRP and the level of neutralisation by the ICVD of IL-6R binding to IL-6/gp130 was determined

In test [4] the target is cynomolgus monkey soluble IL-6R (from cynomolgus monkey serum) (cynomolgus monkey). Description: anti-cynomolgus IL-6R gp130 ELISA (competition): 10x diluted cynomolgus serum, 50 ng/mL human IL-6, coated human gp130.
Test [5] addresses T1, membrane-bound human IL-6R on TF-1 cells. The experiment in a line: cell-based or functional assay. This is another data set of the same source.
The target is the same in test [6]. Description: cell-based or functional assay. The source holds these as a separate data set.
Test [7] deals with T2, recombinant soluble human IL-6R. The experiment in a line: standard gp130 ELISA (competition); column 'Potency'.
The target of test [8] is T3, cynomolgus monkey soluble IL-6R (from cynomolgus monkey serum) (cynomolgus monkey, UniProt P08887 20-365 (human entry)).
T3 construct: Natural soluble IL-6R present in diluted normal cynomolgus monkey serum; also called cyno IL6R; cynomolgous sIL-6R
T3 chain: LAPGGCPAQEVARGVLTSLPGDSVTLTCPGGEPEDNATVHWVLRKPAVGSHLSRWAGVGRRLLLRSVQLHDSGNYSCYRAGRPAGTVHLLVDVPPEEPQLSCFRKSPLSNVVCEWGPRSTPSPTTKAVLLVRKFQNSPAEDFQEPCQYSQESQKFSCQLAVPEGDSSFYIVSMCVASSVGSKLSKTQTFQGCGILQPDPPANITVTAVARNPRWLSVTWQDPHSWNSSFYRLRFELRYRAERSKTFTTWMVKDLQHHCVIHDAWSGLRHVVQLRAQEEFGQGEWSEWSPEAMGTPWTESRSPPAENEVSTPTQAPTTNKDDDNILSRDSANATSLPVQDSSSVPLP
Description: ratio of gp130 ELISA IC50s on human and cynomolgus sIL-6R. Here is the method:
as §1

Test [9] concerns the target T2, recombinant soluble human IL-6R. The experiment in a line: gp130 ELISA (competition), second assay, 10 min pre-incubation; 20 ng/mL IL6R, 100 ng/mL IL6. As to the method:
(§2) Briefly, Maxisorp 96-well plates were coated overnight with 50 μl/well 0.5 μg/ml gp130 then blocked. ICVDs were serially diluted and mixed 1:1 with 100 ng/ml recombinant human IL-6 then 1:1 with 40 ng/ml recombinant human sIL-6R, and incubated for 1 hour to allow binding before adding to the gp130-coated plates. Bound IL-6R was detected with 50 μl/well 0.250 μg/ml BAF227 and then 50 μl/well 1/1000 diluted Extravidin-HRP and the level of neutralisation by the ICVD of IL-6R binding to IL-6/gp130 was determined.
A separate assay was performed on 21E6 and 7F6 using the same protocol as above with the exception that the ICVD/IL-6R/IL-6 where only incubated with shaking for 10 min before being added to the assay plates.

Test [10] addresses T3, cynomolgus monkey soluble IL-6R (from …). Description: anti-cynomolgus IL-6R gp130 ELISA (competition): 10x diluted cynomolgus serum, 50 ng/mL human IL-6, coated human gp130. Here is the method: as §1
In test [11] the target is T2, recombinant soluble human IL-6R. Description: gp130 ELISA (competition): inhibition of human sIL-6R/IL-6 complex binding to coated gp130; 20 ng/mL IL6R, 100 ng/mL IL6. Here is the method: as §2
Dose response curves were obtained (dose response curves of particular ICVDs illustrated in FIG. 1). […] This was confirmed with curve-fitting software (Graphpad Prism), which fitted 4 parameter curves to the data and calculated the IC50s (Table 4.1, below).

Test [12] addresses membrane-bound human IL-6R on TF-1 cells (human) (UniProt P08887). Description: cell-based or functional assay.
The target of test [13] is recombinant soluble human IL-6R (human) (UniProt P08887). The experiment in a line: cell-based or functional assay.
In test [14] the target is membrane-bound human IL-6R on TF-1 cells (human) (UniProt P08887). Description: cell-based or functional assay. This is another data set of the same source.
Test [15] addresses recombinant soluble human IL-6R (human) (UniProt P08887). The experiment in a line: Biacore (SPR): binder fixed to the sensor, soluble human IL-6R flowed over.
For test [16] the target is unchanged. Description: standard gp130 ELISA (competition), Experiment 2; 10 ng/mL IL-6R, 50 ng/mL IL-6.
Test [17] shares this target. The experiment in a line: gp130 ELISA (competition): inhibition of human sIL-6R/IL-6 complex binding to coated gp130; 20 ng/mL IL6R, 100 ng/mL IL6.
Test [18] has as its target T2, recombinant soluble human IL-6R. The experiment in a line: standard gp130 ELISA (competition); reference 5G9.
Test [19] shares this target. Description: standard gp130 ELISA (competition); 10 ng/mL IL-6R, 50 ng/mL IL-6; column 'Potency'. Here is the method: Mutant 5G9 sequences were produced and tested for their potency in the standard gp130 ELISA. The standard gp130 ELISA has a final assay concentration of 10 ng/mL IL-6R and 50 ng/mL IL-6.
The target of test [20] is T1, membrane-bound human IL-6R on TF-1 cells. Description: cell-based or functional assay. This is another data set of the same source.
Test [21] concerns the target T2, recombinant soluble human IL-6R. Description: cell-based or functional assay.
The target is the same in test [22]. The experiment in a line: Biacore (SPR): ICVD fixed to the sensor, soluble human IL-6R flowed over. An excerpt:
The binding kinetics of the trans-selective ID-123V (E. coli produced version of ID-142V) and the cis/trans potent ID-112V (E. coli produced version of ID-144V, but for ID-112V lacking N82Y relative to ID-144V) were compared against tocilizumab in a Biacore study. The ICVDs were fixed to the Biacore sensor plate and soluble human IL-6R was flowed over the plate to detect binding.

The target is the same in test [23]. Description: standard gp130 ELISA (competition), Experiment 1; 10 ng/mL IL-6R, 50 ng/mL IL-6. As to the method:
(§3) The inhibitory potency and efficacy (maximal inhibition) of the E. coli-produced 5G9 derivatives were confirmed in vitro in the gp130 ELISA, TF-1 cell and M1 cell functional assays measuring responses mediated via human IL-6R. The gp130 assays follow the standard protocol with a final assay concentration of 10 ng/mL IL-6R and 50 ng/mL IL-6.

The target of test [24] is T1, membrane-bound human IL-6R on TF-1 cells. The experiment in a line: cell-based or functional assay. This is another data set of the same source.
The target in test [25] is T2, recombinant soluble human IL-6R. Description: standard gp130 ELISA (competition), Experiment 2; 10 ng/mL IL-6R, 50 ng/mL IL-6. As to the method:
as §3

Test [26] addresses T1, membrane-bound human IL-6R on TF-1 cells. Description: cell-based or functional assay. This is another data set of the same source.

Regarding tocilizumab Fab, in test [1], the IC50 of inhibition of IL-6-induced TF-1 cell proliferation amounted to 15.9 nM. Besides, the Ratio of human IC50 to cynomolgus IC50 in test [2] came to 0.6. Further, the IC50 in test [3] was found to be 0.704 nM; in [4], 1.13 nM.

B1: 7F6 (VHH)
VHH: EVQLVESGGGLVQAGGSTRLTCLASGSISSINVIGWYRQAPGKQRELVAMIGRGEGANYGDFAKGRFTISRDNSKNTVYLQMNSLKPEDTAVYYCYADYEDRDSPFNGSWGQGTQVTVSS
notes: also called VIL-7F6; 'Wild type' 7F6; not shown: C-terminal Flag and 6xHis tags from vector pMEK222
B1: the “IC50 of inhibition of IL-6-induced TF-1 cell proliferation” value in test [5] is 0.5 nM. For the same molecule, the “IC50 in TF1 assay (separate assay, raised background)” value in [6] is 3 nM. Besides, the IC50 was found to be 0.15 nM in [7]; 0.424 nM in test [3]; 0.16 nM in test [9]; 0.342 nM in test [10]; 0.11 nM in test [11]. For the same molecule, in test [8], the “Ratio Cyno IC50/human IC50 (title: human IC50 divided by cynomolgous IC50)” value was 1.2.

B2: tocilizumab (antibody, part only; not given: constant regions, V domains shown, not shown: another chain or arm of the molecule)
VH: QVQLQESGPGLVRPSQTLSLTCTVSGYSITSDHAWSWVRQPPGRGLEWIGYISYSGITTYNPSLKSRVTMLRDTSKNQFSLRLSSVTAADTAVYYCARSLARTTAMDYWGQGSLVTVSS
VL: DIQMTQSPSSLSASVGDRVTITCRASQDISSYLNWYQQKPGKAPKLLIYYTSRLHSGVPSRFSGSGSGTDFTFTISSLQPEDIATYYCQQGNTLPYTFGQGTKVEIK
In the case of B2, the TF-1 cell assay EC50 (5 ng/ml IL-6) is 0.69 nM in test [12] and 1.12 nM in test [14]. Further, the Potency in the TF-1 assay in test [12] (scale: not given) is 0.69. The M1 cellular assay EC50 (20 ng/ml IL-6R, 100 ng/ml IL-6) in test [13] was found to be 5.36 nM. The Kd in test [15] worked out at 0.39 nM. Further, the EC50 in [16] worked out at 1.83 nM. Moreover, in test [17], the IC50 stood at 0.97 nM.

B3: ID-58V (VHH)
VHH: EVQLVESGGGLVQAGGSTRLTCKASGSIFNINSINVMAWYRQAPGKQRELVAIIGKGGGTNYADVVKGRFTISRDAAKNTVNLQMNSLKPEDTAVYYCYADYEDRDSPFNASWGQGTQVTVSS
notes: Mutant of 5G9; also called 5G9 + F65V; not shown: C-terminal Flag- and His-tags of E. coli constructs
Consider B3, for which the “fold increase of IC50 against 5G9” value in [18] was about 3 fold. The IC50 in test [19] is 0.36 nM.

B4: ID-112V (VHH)
VHH: B3 VHH with F29S, Q47G, V65F, K89R, R105H
notes: E. coli-produced cis/trans potent 5G9 derivative; also called 5G9 + F29S, Q47G, K89R, R105H; not shown: C-terminal FLAG-6xHis
For B4, in test [20], the “TF-1 cell assay EC50 (5 ng/ml IL-6)” value worked out at 0.18 nM. The “M1 cellular assay EC50 (20 ng/ml IL-6R, 100 ng/ml IL-6)” value (“M1 cellular assay EC50” below) in test [21] turned out to be 0.55 nM. The Kd in test [22] turned out to be 0.04 nM. Besides, the EC50 in [23] came out at 0.15 nM.

B5: ID-123V (VHH)
VHH: B3 VHH with F29S, Q47G, V65F, N82Y, K89R, R105H, F109H
notes: E. coli-produced trans-selective 5G9 derivative; E. coli version of ID-142V (lacks E1D); also called 5G9 + F29S, Q47G, N82Y, K89R, R105H, F109H; not shown: C-terminal FLAG-6xHis
With B5, the “TF-1 cell assay EC50 (5 ng/ml IL-6)” value in test [24] stood at 4.5 nM. The “M1 cellular assay EC50” value in [21] was found to be 4.2 nM. For the same molecule, in test [22], the Kd amounted to 1.1 nM. Also, the EC50 in test [25] came out at 0.498 nM.

B6: ID-114V (VHH)
VHH: B3 VHH with F29S, V65F, V81L, N82Y, R105H
notes: E. coli-produced cis/trans potent 5G9 derivative; also called 5G9 + F29S, V81L, N82Y, R105H; not shown: C-terminal FLAG-6xHis
B6: the “TF-1 cell assay EC50 (5 ng/ml IL-6)” value in test [26] is 0.29 nM. For the same molecule, the “M1 cellular assay EC50” value in test [21] was 0.52 nM. Also, the EC50 in test [23] came out at 0.138 nM.
